Substrate in this series: Cc1cc(=O)oc2cc(O[C@@H]3O[C@H](CO)[C@@H](O)[C@H](O)[C@H]3O)ccc12
Description: purified protein.

These results are taken from PMC7271948, “A baculoviral system for the production of human β-glucocerebrosidase enables atomic resolution analysis” (Acta Crystallographica. Section D, Structural Biology, 2020).

B1: β-glucocerebrosidase (GBA) (Homo sapiens) (protein)
chain: ARPCIPKSFGYSSVVCVCNATYCDSFDPPTFPALGTFSRYESTRSGRRMELSMGPIQANHTGTGLLLTLQPEQKFQKVKGFGGAMTDAAALNILALSPPAQNLLLKSYFSEEGIGYNIIRVPMASCDFSIRTYTYADTPDDFQLHNFSLPEEDTKLKIPLIHRALQLAQRPVSLLASPWTSPTWLKTNGAVNGKGSLKGQPGDIYHQTWARYFVKFLDAYAEHKLQFWAVTAENEPSAGLLSGYPFQCLGFTPEHQRDFIARDLGPTLANSTHHNVRLLMLDDQRLLLPHWAKVVLTDPEAAKYVHGIAVHWYLDFLAPAKATLGETHRLFPNTMLFASEACVGSKFWEQSVRLGSWDRGMQYSHSIITNLLYHVVGWTDWNLALNPEGGPNWVRNFVDSPIIVDITKDTFYKQPMFYHLGHFSKFIPEGSQRVGLVASQKNDLDAVALMHPDGSAVVVVLNRSSKDVPLTIKDPAVGFLETISPGYSIHTYLWRRQ
With B1, the Michaelis constant (Km) (usually the concentration of substrate that gives half-maximal velocity) turned out to be 1288 ± 51 µM; the Vmax (as a rule, the top rate of the reaction or transport when substrate is in excess) was determined as 11.7 µM/min; the kcat (commonly the maximal rate divided by the concentration of active sites) amounted to 19.6 s⁻¹.
